The results in this text go back to patent publication US20200291444A1, “Macrocyclisation Tags” (Oxford University Innovation LTD, priority 2017, published 2020).

Assay [1] concerns the target T1, GmPOPB_S577A (Galerina marginata), H2E7Q8.
T1 chain: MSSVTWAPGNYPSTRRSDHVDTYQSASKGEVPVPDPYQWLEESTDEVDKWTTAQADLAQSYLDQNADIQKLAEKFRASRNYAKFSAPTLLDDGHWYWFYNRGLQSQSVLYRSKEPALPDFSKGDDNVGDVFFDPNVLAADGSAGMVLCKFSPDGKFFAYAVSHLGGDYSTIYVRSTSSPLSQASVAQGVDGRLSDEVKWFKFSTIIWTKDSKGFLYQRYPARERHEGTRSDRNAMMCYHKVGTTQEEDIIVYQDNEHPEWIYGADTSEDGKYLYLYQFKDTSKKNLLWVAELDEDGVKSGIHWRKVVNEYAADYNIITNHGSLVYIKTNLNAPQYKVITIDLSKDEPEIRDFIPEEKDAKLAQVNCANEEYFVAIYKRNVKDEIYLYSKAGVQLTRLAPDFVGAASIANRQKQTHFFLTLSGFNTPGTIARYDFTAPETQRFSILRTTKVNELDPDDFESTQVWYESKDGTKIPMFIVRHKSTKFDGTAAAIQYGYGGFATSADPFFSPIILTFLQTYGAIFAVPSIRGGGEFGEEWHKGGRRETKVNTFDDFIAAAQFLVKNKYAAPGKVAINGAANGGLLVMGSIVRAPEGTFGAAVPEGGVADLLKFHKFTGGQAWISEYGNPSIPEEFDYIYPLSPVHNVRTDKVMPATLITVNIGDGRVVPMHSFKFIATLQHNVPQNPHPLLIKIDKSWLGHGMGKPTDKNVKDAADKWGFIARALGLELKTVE
As to the kind of experiment: ITC. A general note: In ITC the heat of successive injections is recorded.

In assay [2] the target is T1, GmPOPB_S577A (Galerina marginata), …. As to the kind of experiment: ITC, peptide titrated into GmPOPB_S577A, 20 C.
Assay [3] shares this target. As to the kind of experiment: ITC, 20 C, single-site model.

In general, Kd refers to a measure of binding affinity in units of concentration. The low end stands for higher affinity, the high end for lower affinity.

Consider IWGIGCNPWTAEH (modifications not checked) [13mer truncated substrate], for which, in assay [1], the fold difference in affinity against the 35mer was determined as 20 fold and the fold reduction in binding against the 35mer stood at 10 fold. Also, the Kd in assay [2] was determined as 2.4 µM.

Molecule IWGIGCNPWTA (modifications not checked) [11mer truncated substrate] displayed a Kd in assay [2] of 39 µM. The molecule VDQTLASGNDIC (modifications not checked) gave a fold reduction of binding affinity against the 17mer recognition sequence in assay [1] of 20 fold. Besides, in assay [2], the Kd is 5 µM. For the molecule TLASGNDIC (modifications not checked), in assay [2], the Kd is 121 µM. The same measure, in the same setting: for IWGIGCNPWTAE (modifications not checked) [12mer truncated substrate] the value was 21 µM. On to WTAEHVDQTLASGNDIC (modifications not checked) [recognition sequence (17mer) …], for which the Kd in assay [3] came out at 0.43 µM.

Take IWGIGCNPWTAEHV (modifications not checked) [14mer truncated substrate]: the Kd in assay [2] worked out at 9.5 µM. Molecule IWGIGCNPWT (modifications not checked) [10mer truncated substrate] registered a Kd in assay [2] of 83 µM. This Kd is about 8.7-fold higher than that of the molecule before.
